Experimental data reported in patent US20240287172A1 (SCIRHOM, published 2024).

B1: antibody 48 (antibody, V domains shown)
VH: QVQLQQSGTELVRPGTSVKVSCKASGYAFTNYLIEWVKQRPGQGLEWIGVINPGSGFTKYNEKFKGKATLTADKSSSTVYMHLSSLTSEDSAVYFCARGLYRAMDYWGQGTSVTVSS
VL: DIQMTQSPASQSASLGESVTITCLASQTIATWLAWYQQKPGKSPQLLIYGATTLADGVPSRFSGGGSGTKFSFKISSLQAEDFVSYYCQQLYSTPYTFGGGTKLEIK
notes: mouse IgG, kappa light chain; also called clone #48; purified antibody 48
B2: antibody 50 (antibody, V domains shown)
VH: QVQLQQSGAELVRPGASVKVSCKASGYAFSNYLIEWVKQRPGQGLEWIGVINPGSGFTKYNEKFKGKATLTADKSSSTAYMQLSSLTSEDSAVYFCARGLYRAMDYWGQGTSVTVSS
VL: DIQMTQSPASQSASLGESVTITCLASQTIGTWLAWYQQKPGKSPQLLIYAAASLADGVPSRFSGGGSGTKFSFKISSLQAEDFVNYYCQQIYSTPYTFGGGTKLEIK
notes: mouse IgG, kappa light chain; also called clone #50; purified antibody 50

Biological target: T1, hiR2-FL-E617D-T7 (human, UniProt Q6PJF5 1-856)
T1 sequence: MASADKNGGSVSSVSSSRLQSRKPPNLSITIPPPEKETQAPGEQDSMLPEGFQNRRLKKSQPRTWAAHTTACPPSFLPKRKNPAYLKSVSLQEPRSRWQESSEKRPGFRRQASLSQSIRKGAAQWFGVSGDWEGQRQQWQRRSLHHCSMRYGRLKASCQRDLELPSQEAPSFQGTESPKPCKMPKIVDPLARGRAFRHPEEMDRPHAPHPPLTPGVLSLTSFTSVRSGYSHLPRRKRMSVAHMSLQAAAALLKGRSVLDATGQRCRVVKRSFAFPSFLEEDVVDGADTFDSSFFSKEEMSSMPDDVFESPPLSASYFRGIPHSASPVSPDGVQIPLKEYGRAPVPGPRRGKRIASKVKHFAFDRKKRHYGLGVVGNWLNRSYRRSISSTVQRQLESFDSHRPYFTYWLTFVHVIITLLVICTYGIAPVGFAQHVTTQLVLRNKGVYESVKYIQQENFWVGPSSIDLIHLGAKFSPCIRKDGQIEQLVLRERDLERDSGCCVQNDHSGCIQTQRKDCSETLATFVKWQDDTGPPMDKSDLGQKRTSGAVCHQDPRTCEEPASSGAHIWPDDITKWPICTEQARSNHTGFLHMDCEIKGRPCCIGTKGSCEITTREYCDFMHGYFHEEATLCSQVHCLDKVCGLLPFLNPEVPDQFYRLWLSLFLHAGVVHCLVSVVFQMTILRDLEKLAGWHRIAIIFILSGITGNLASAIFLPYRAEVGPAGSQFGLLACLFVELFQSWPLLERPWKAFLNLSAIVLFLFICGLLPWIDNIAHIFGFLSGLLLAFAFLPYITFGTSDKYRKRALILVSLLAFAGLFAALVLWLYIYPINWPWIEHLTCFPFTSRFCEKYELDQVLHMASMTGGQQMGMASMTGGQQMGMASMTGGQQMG
Test: FACS, MEF-DKO cells, 3 µg/ml
Procedure, shortened: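 Binding read by flow cytometry after a PE goat anti-mouse IgG F(ab′)2 secondary (1:100, on ice, 1 h, dark). Before that, immortalized MEF-DKO lines carrying single-mutant hiR2-FL-T7 constructs were incubated 1 h on ice with 3 μg/ml antibody or FACS buffer alone.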

Row | Binder | loss of binding vs wild type [%]
1 | B1 | ≥ 30
2 | B2 | ≥ 30
